{"source": "patent US20210072250A1", "about": "(Genentech, published 2021)", "binders": {"B1": {"name": "mAbHpu24 (antibody, V domains shown)", "VH": "QEQLKESGGRLVAPGTPLTLTCTVSGFDISDYAMIWVRQAPGKGLEWIGIIYGGSNKLAYAKWAKGRFTISRTSTTVDLKITSPTTEDTATYFCARGYGSMDGYDRLNLWGQGTLVTVSS", "VL": "AAVLTQTPSPVSAAVGGTVTISCQSSETVYRGDWLSWFQKKPGQPPKLLIYDASYLASGVSSRFSGSGSGTHFTLTISGVQCDDAATYYCLGGYYDDADDTFGGGTEVVVK", "notes": "also called antibody Hpu24"}, "B2": {"name": "FabHpu24 (Fab, V domains shown)", "VH": "B1 VH", "VL": "AAVLTQTPSPVSAAVGGTVTISCQSSETVYRGDWLSWFQKKPGQPPKLLIYDASYLASGVSSRFSGSGSGTHFTLTISGVQCDDAATYYCLGGYYDDADDTFGGGTEVVVKG"}, "B3": {"name": "mAbHpu24.B (antibody, V domains shown)", "VH": "B1 VH with G54V, S55I, K57D", "VL": "B1 VL with Q24R, S26R, E27Q, T28R, R31L, Y55F, L56R, A57G, S58D", "notes": "also called antibody Hpu24.B"}, "B4": {"name": "FabHpu24.B (Fab, V domains shown)", "VH": "B1 VH with G54V, S55I, K57D", "VL": "B2 VL with Q24R, S26R, E27Q, T28R, R31L, Y55F, L56R, A57G, S58D"}, "B5": {"name": "mAbHpu91 (antibody, V domains shown)", "VH": "QSVEESGGRLVTPGTPLTLTCTVSAFSLSTYTINWVRQAPGKGLEWIGDIWSDGNTYYANWAKGRFTISKTSTTVDLKITSPTTEDTATYFCARDSWDTSIYYGLDLWGQGTLVTVSS", "VL": "AIKMTQTPSSVSAAVGGTVTINCQASEDIKRYLAWYQQKPGQPPKLLIYAASKLASGVSSRFTGSGSGTEYTLTISGVQCDDAATYYCQQGYTSTNVNNAFGGGTEVVVK", "notes": "also called antibody Hpu91"}, "B6": {"name": "FabHpu98.61 (Fab, V domains shown)", "VH": "B5 VH with F26C, S29Y, T30H, Y31C, I33M, W51Y, S52T, T99A, I101S", "VL": "AIKMTQTPSSVSAAVGGTVTINCQASEDIKRYLAWYQQKPGQPPKLLIYAASKLASGVSSRFKGSGSGTEYTLTISGVQCDDAATYYCQQGYTSSNVNNAFGGGTEVVVKG"}}, "key": {"[1]": {"target": "P6", "test": "ELISA, unpurified hybridoma supernatant on peptide"}, "[2]": {"target": "T1, P6-Hpu", "T1 construct": "Synthetic peptide", "test": "SPR, Biacore T200, peptide captured, Fab flowed"}, "[3]": {"target": "T2, endogenous eIF5A (human, UniProt P63241 2-154)", "T2 construct": "also called endogenous eIF5A protein of 293T cells", "T2 sequence (P63241 2-154 limits assumed)": "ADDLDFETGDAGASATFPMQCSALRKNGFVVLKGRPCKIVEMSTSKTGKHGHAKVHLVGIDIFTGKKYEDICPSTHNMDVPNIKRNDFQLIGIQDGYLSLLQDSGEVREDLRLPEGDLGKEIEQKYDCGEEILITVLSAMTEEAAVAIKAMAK", "test": "immunoprecipitation from 293T cell lysate (diluted 1, 2, 4, 8-fold) with antibody on protein A beads, SDS-PAGE, Coomassie blue"}, "[4]": {"target": "T1, P6-Hpu", "test": "SPR, ratio of KD values"}, "[5]": {"target": "T2, endogenous eIF5A", "test": "Western blot of lysates of 293 cells transfected with DHS-DOHH and flag-eIF5A WT or K50A"}, "[6]": {"target": "T3, Flag-tagged human wild-type eIF5A (human, UniProt P63241 1-154)", "T3 construct": "also called transfected wild-type eIF5A; WT eIF5A", "test": "Western blot of lysates of 293 cells transfected with DHS-DOHH and flag-eIF5A WT or K50A"}, "[7]": {"target": "T4, Flag-tagged human K50A eIF5A (human, UniProt P63241 1-154)", "T4 construct": "also called K50A variant; K50A mutant eIF5A", "T4 sequence (P63241 whole entry K50A)": "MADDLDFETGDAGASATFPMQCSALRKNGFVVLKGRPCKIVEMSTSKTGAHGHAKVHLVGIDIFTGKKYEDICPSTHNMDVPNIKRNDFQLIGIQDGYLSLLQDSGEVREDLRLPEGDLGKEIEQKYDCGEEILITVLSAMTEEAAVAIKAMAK", "test": "Western blot of lysates of 293 cells transfected with DHS-DOHH and flag-eIF5A WT or K50A"}, "[8]": {"target": "T1, P6-Hpu", "test": "ELISA, unpurified hybridoma supernatant on peptide"}}, "note": "Changes are numbered by the printed parent chain.", "data": [{"binder": "B1", "values": [{"measurement": "binding result", "setting": "[1]", "value": "no binding"}]}, {"binder": "B2", "values": [{"measurement": "Kd", "setting": "[2]", "value": 176, "unit": "nM"}]}, {"binder": "B3", "values": [{"measurement": "binding result", "setting": "[3]", "value": "binds"}]}, {"binder": "B4", "values": [{"measurement": "Fold improvement in KD over parent FabHpu24", "setting": "[4]", "value": 2.9, "unit": "fold"}, {"measurement": "Kd", "setting": "[2]", "value": 61, "unit": "nM"}]}, {"binder": "B5", "values": [{"measurement": "binding result", "setting": "[5]", "value": "binds"}, {"measurement": "binding result", "setting": "[6]", "value": "binds"}, {"measurement": "binding result", "setting": "[7]", "value": "no binding"}, {"measurement": "binding result", "setting": "[8]", "value": "binds"}, {"measurement": "binding result", "setting": "[1]", "value": "no binding"}]}, {"binder": "B6", "values": [{"measurement": "Fold improvement in KD over parent FabHpu98", "setting": "[4]", "value": "> 4.4", "unit": "fold"}, {"measurement": "Kd", "setting": "[2]", "value": 229, "unit": "nM"}]}]}
